Paper PMC9513909, “Genomic distribution and context dependent functionality of novel WRKY transcription factor binding sites”

Assays:
[1] = molecular target: T1, WRKY70 (Arabidopsis thaliana, UniProt Q9LY00 1-294); assay: EMSA; EMSA with 3' biotin-labelled probes (LightShift kit detection); buffer, salt, pH and temperature not given (earlier protocols cited); conditions: protein: recombinant; label: 3' biotin (probe)
T1 sequence: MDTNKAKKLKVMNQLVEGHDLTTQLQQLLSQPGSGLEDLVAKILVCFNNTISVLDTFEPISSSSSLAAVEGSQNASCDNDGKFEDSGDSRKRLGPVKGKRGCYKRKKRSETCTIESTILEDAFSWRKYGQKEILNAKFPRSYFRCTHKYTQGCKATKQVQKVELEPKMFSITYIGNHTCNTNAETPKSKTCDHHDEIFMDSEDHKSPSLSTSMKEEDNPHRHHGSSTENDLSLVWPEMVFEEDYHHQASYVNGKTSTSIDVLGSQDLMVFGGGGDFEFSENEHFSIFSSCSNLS

[2] = molecular target: T2, WRKY50BD (Arabidopsis thaliana, UniProt Q8VWQ5 86-173); assay: EMSA; shift abolished or strongly reduced by 4000-fold unlabelled S1; EMSA with 3' biotin-labelled probes (LightShift kit detection); buffer, salt, pH and temperature not given (earlier protocols cited); conditions: protein: recombinant; label: 3' biotin (probe)
[3] = molecular target: T2, WRKY50BD; assay: EMSA; shift abolished or strongly reduced by 4000-fold unlabelled S2; EMSA with 3' biotin-labelled probes (LightShift kit detection); buffer, salt, pH and temperature not given (earlier protocols cited); conditions: protein: recombinant; label: 3' biotin (probe)
[4] = molecular target: T1, WRKY70; assay: as above; conditions: protein: recombinant; label: 3' biotin (probe)
[5] = molecular target: T2, WRKY50BD; assay: competition; 4000-fold excess against labelled S1; EMSA with 3' biotin-labelled probes (LightShift kit detection); buffer, salt, pH and temperature not given (earlier protocols cited); conditions: protein: recombinant; label: unlabelled
[6] = molecular target: T2, WRKY50BD; assay: competition; 4000-fold excess against labelled S2; EMSA with 3' biotin-labelled probes (LightShift kit detection); buffer, salt, pH and temperature not given (earlier protocols cited); conditions: protein: recombinant; label: unlabelled
[7] = molecular target: T1, WRKY70; assay: as above; conditions: protein: recombinant; label: unlabelled

T2 sequence (Q8VWQ5 86-173): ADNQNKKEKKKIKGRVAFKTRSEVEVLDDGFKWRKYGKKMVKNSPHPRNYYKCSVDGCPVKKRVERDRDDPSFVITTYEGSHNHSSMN

B1: S1 (dsDNA)
DNA 1: CACATTTACATTGCGACTTTTCTTGCATGCCGTC
DNA 2: GACGGCATGCAAGAAAAGTCGCAATGTAAATGTG
- binding result [1]: no binding
- binding result [2]: binds

B2: S2 (dsDNA)
DNA 1: ATCGTCTAAGAGACGACTTTTCTCGTAACTTTAT
DNA 2: ATAAAGTTACGAGAAAAGTCGTCTCTTAGACGAT
- binding result [3]: binds
- binding result [4]: binds

B3: S1mut1 (dsDNA)
DNA 1: CACATTTACATTGCAGTCCCTCTTGCATGCCGTC
DNA 2: GACGGCATGCAAGAGGGACTGCAATGTAAATGTG
- binding result [5]: no binding

B4: S2mut1 (dsDNA)
DNA 1: ATCGTCTAAGAGACAGTCCCTCTCGTAACTTTAT
DNA 2: ATAAAGTTACGAGAGGGACTGTCTCTTAGACGAT
- binding result [6]: no binding
- binding result [7]: no binding
